Measured values taken from patent US20260104381, “ELECTRODEPOSITED METAL MODIFIED LASER SCRIBED GRAPHENE ELECTRODE AND METHOD” (KING ABDULLAH UNIVERSITY OF SCIENCE AND TECHNOLOGY, published 2026).

Target: HER2 (human epidermal growth factor receptor 2) (Homo sapiens, UniProt P04626 P04626:23-652)
Assay: electrochemical SWV aptasensor; 0.1-200 ng/mL HER2 in 10 mM PBS pH 7.4, 1 h; MCH/BSA blocked; LOD 0.008 ng/mL; also detected in spiked undiluted human serum; protein source not stated
Conditions: label: immobilized via thiol on gold nanostructured laser-scribed graphene electrode
Protocol: The concentrated Mercaptohexanol (MCH) solution was first prepared in ultrapure water and then further diluted in 10 mM PBS (pH 7.4). 4 μM of DNA aptamer 410 was mixed with 20 μM of MCH 412 prepared with 10 mM PBS (pH 7.4) to obtain a homogenized solution. As the next step, 6 μL from this mixture was placed in step 402 onto the LSG-AuNS modified working electrode 104 and incubated for 16 h, as shown in FIG. 4B. The MCH 412 covers a first part of the surface of the nanostructure 110 while the aptamer 410 covers a second part of the surface of the nanostructure 110. However, a third part of the surface of the nanostructure 110 is not covered by either of the MCH or the aptamer. The LSG-AuNS electrode surface was cleaned with 10 mM PBS (pH 7.4) to remove the excess of aptamer molecules 410 and MCH 412. The aptasensor was incubated in step 405 in 0.1 mg/mL of BSA solution 414 in 10 mM PBS (pH 7.4) for 45 min to cover a third part of the surface of the nanostructure 110, to reduce non-specific adsorption, as illustrated in FIG. 4C. In one application, the sum of the surfaces of the first to third parts covers the entire surface of the nanostructure 110. However, in another application, the sum of the first to third parts cover less than the entire surface of the nanostructure 110. Finally, the aptamer modified electrode 104 was washed with 10 mM PBS (pH 7.4) for at least five times. […]

B1: thiol-modified anti-Her-2 DNA aptamer (APT) (ssDNA)
DNA: AACCGCCCAAATCCCTAAGAGTCTGCACTTGTCATTTTGTATATGTATTTGGTTTTTGGCTCTCACAGACACACTACACACGCACA
modifications: 5'-ThiC6 (thiol C6 linker)
Does B1 bind?
Result: binds
